Laboratory results reported in US20240368272A1 (UNIVERSITY OF BERN, published 2024).

Tests used:
[1] = biological target: T1, human KCNQ1 (expressed together with KCNE1 as a separate chain; IKs channel) (human, UniProt P51787 1-676); assay: cell-based or functional assay
T1 sequence: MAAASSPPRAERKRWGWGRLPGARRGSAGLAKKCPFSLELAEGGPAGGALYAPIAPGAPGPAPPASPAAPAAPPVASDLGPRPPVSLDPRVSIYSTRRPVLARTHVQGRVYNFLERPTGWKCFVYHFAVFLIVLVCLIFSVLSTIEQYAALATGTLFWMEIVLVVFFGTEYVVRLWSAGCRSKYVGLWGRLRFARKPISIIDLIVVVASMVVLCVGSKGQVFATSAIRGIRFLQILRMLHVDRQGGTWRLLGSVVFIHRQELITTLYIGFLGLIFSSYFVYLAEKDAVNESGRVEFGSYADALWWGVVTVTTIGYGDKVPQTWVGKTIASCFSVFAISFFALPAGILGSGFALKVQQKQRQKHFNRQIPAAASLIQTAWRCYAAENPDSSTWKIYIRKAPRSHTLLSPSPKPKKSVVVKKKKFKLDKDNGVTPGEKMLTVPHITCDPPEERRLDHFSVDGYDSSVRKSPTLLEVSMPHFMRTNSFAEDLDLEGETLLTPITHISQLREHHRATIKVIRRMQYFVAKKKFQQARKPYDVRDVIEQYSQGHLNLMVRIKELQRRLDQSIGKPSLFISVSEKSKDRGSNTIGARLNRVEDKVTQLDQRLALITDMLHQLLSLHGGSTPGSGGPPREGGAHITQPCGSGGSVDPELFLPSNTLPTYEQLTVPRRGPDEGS

[2] = biological target: T2, KCNQ1 channel peptide (AEKDAVNESGRVEFGSYADA) (human); assay: SPR (Biacore 8K), antibody immobilised on CM5 chip, peptide as analyte, mean of triplicate
T2 construct: Coupled to KLH for immunisation; the free peptide (2.12 kDa) was the analyte in SPR; also called KCNQ1 peptide; antigenic peptide
T2 peptide: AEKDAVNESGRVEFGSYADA
Method: Antibody kinetics and affinity measurement: A Biacore 8K Surface Plasmon Resonance (SPR) instrument (GE Healthcare Life Sciences, ProteoGenix, France) equipped with a CM5 sensor chip was used to generate binding kinetic rate and affinity constants at room temperature. IgG2a 8-F11-D4 (10 μg/ml) was immobilized onto the CM5 chip by amide coupling, following manufacturer's protocol. The surface chemistry was activated using 1-Ethyl-3-(3-dimethylaminopropyl) carbodiimide hydrochloride (EDC) and sulfo-N-Hydroxysuccinimide (NHS) reagents prior to immobilization, while ethanolamine was used to deactivate remaining active esters. Samples were prepared in HBS-EP⁺ buffer composed of 10 mM HEPES (pH 7.4), 150 mM NaCl, 3 mM EDTA, 0.05% Surfactant P20. The antigenic peptide was suspended in 20 mM sodium acetate (pH 4.5) and glycine-HCl (pH 1.5) was used as regeneration buffer. […] This level was considered optimal based upon the calculation of the maximal response (Rₘₐₓ) of analyte (antigenic peptide) to ligand (IgG2a): Rₘₐₓ=(MWanalyte/MWligand)×RL×Sₘ, where MWanalyte and MWligand are the molecular weights of the peptide (analyte, 2.12 kDa) to the antibody (ligand, 180 kDa as determined by SDS-PAGE), respectively, RL is the target amount of ligand bound in RU, and Sₘ represents the stoichiometric ratio of the analyte/ligand interaction (Sₘ equals 1). A theoretical Rₘₐₓ of […] is achieved at 10′000 RU of ligand. […] Injections were performed in triplicate to assess for the assay's reproducibility. All data were processed and analyzed with Biacore 8K Evaluation Software.

[3] = biological target: T3, N-terminally biotinylated KCNQ1 peptide (Nterm-Biotin-(CH2O)4-AEKDAVNESGRVEFGSYADA-Cterm) (human, N-terminal Biotin-(CH2O)4-); assay: bio-layer interferometry (Octet RED96), biotinylated KCNQ1 peptide on streptavidin tips, 1:1 model, mean of duplicate runs
T3 construct: Immobilised on streptavidin biosensor tips for Octet BLI
T3 peptide: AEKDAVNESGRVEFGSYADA
Method: (§1) FIG. 16. Kinetic measurements of mAb binding to 20aa KCNQ1 target sequence.
(§2) Binding kinetics of KCNQ1 peptide interactions with IgG2a 8-F11-D4 was monitored using Octet RED96 Bio-Layer Interferometry (Sartorius). All measurements were performed in duplicate at 25° C. in an assay-specific buffer containing 1× PBS pH 7.4, 1× kinetic buffer and 1% BSA using 96-well plates with orbital shake speed of 1,000 rpm. The binding curves were generated by first immobilizing 1 mM N-terminally biotinylated KCNQ1 peptide on streptavidin-coated biosensor tips for 2.5 min followed by a baseline equilibration step for 5 min. The biosensor tips were then submerged in wells containing […] mAbs for 5 min to monitor formation of the mAb-peptide complex, followed by antibody dissociation in the assay buffer for 5 minutes. A shift in the interference pattern of white light reflected from the surface of a biosensor tip caused by antibody binding/dissociation was monitored in real time. Antibody-peptide interactions were analyzed by a 1:1 binding model and the dissociation constants (KDs) were determined as ratios of dissociation (koff) and association (kon) binding rate constants derived using non-linear fitting model in GraphPad Prism.

[4] = biological target: T3, N-terminally biotinylated KCNQ1 peptide …; assay: BLI (Octet RED96), biotinylated peptide on streptavidin tips, antibody in solution, 1:1 model, duplicate
Method: as §1, §2

B1: IgG2a 8-F11-D4 monoclonal antibody (antibody, V domains shown)
VH: EVKLVESGGGLVKPGGSLQLSCAASGFTFSNYAMSWVRQTPEKRLEWVASISGGGNTYYPDSVKGRFTISRDNARNILYLQMNSLRSEDTAMYYCVRATRDYFDYWGQGTTLTVSS
VL: DIVMSQSPSSLAVSVGEKVTMSCKSSQSLLNSRTRKSYLAWYQQKPGQSPKLLIYWASTRESGVPDRFTGSGSGTDFTLTISSVQAEDLAVYSCEQSYYLYTFGGGTKLEIK
notes: also called mouse monoclonal IgG2a 8-F11-D4; murine monoclonal anti-KCNQ1 antibody IgG2a 8-F11-D4
- half-maximal effective concentration (EC50) of APD90 reduction in hiPSC-CMCs [1]: 5.7 µg/mL
- mean IKs step current at +70 mV, whole-cell patch clamp, CHO cells stably expressing human IKs channels, 30 µg/ml IgG [1]: 1.6 fold
- mean IKs tail current upon repolarization to -40 mV, whole-cell patch clamp, CHO cells stably expressing human IKs channels, 30 µg/ml IgG [1]: 1.5 fold
- Kd [2]: 9.02 nM
- koff [2]: 0.00082 s⁻¹
- kon [2]: 90900 M⁻¹ s⁻¹
- Kd [3]: 3.7 nM
- Kd [4]: ~4 nM

B2: recombinant murine IgG2a 8-F11-D4 antibody (antibody, V domains shown)
VH: B1 VH
VL: B1 VL
- IKs step current at +70 mV versus control, CHO cells stably expressing human IKs, 30 µg/ml recombinant antibody [1]: 1.6 fold
- IKs tail current versus control, CHO cells stably expressing human IKs, 30 µg/ml recombinant antibody [1]: 1.5 fold
